Results as given in US20100196385A1 (AstraZeneca / MedImmune, published 2010).
One block for each binder: values may come before it.

Columns and labels:
full length human DLL4 [1] = target: T1, full length human DLL4 (human, UniProt Q9NR61 27-685); assay: FMAT, hybridoma supernatant, 293T cells with human DLL4
T1 construct: whole, on cells; also called native DLL4 expressed in HEK293 cells
Description: Cells diluted in PBS containing 2% FBS were seeded at a density of 3000 expressing and 15000 mock transfected cells per well in 384 well plates (Corning Costar, catalog #3712). Immediately after plating, 15 or 20 μl/well of hybridoma supernatants and 10 μl/well of secondary antibody (Goat anti-human IgG Fc Cy5, final concentration 750 ng/ml) were added and plates incubated for 3 h at room temperature prior to reading the fluorescence on the FMAT 8200 instrument (Applied Biosystems). The binding of human Notch1/Fc chimera (R&D systems, catalog #3647-TK), diluted 1:2 from 2.86 μg/ml was used as a positive control for DLL4 and human Notch3/Fc chimera diluted from 10 μg/ml was used a positive control for binding to Jagged1. Results for 12 hybridoma supernatants showing binding of hybridoma supernatants to human/cynomolgus monkey DLL4 and human Jagged are shown in Table 3.

full length human DLL4 [2] = target: T1, full length human DLL4; assay: FMAT competition, supernatant vs Alexa-647 human Notch1/Fc, 293T cells with human DLL4; FMAT competition with Alexa-647 human Notch1/Fc, native human DLL4 on 293T cells, 4 C, n = 3
Description: Transfected and untransfected 239T cells were reconstituted in PBS containing 2% FCS and 5000 transfected and 17500 non-transfected cells were plated in 20 μl into wells of a 384-well tissue culture plate (Corning Costar, catalog #3712). Subsequently, 20 μl of hybridoma supernatant was added and plates were incubated at 4° C. for 1 h, at which time 20 μl of Alexa-647 labeled human Notch1/Fc was added at a final concentration of 6.7 ng/ml. After a further 3 h incubation at 4° C., the amount of bound Notch1/Fc was determined by reading the fluorescence in each well using an FMAT 8200 instrument (Applied Biosystems). Results are expressed as % inhibitions with the minimum inhibition in the assay being determined by the effects of non-DLL4 binding supernatants prepared in a similar way as described in example 2, and the maximum inhibition being defined as the signal obtained in the presence of a saturating concentration of unlabeled Notch1/Fc. N.T.=not tested

T1 sequence (Q9NR61 27-685): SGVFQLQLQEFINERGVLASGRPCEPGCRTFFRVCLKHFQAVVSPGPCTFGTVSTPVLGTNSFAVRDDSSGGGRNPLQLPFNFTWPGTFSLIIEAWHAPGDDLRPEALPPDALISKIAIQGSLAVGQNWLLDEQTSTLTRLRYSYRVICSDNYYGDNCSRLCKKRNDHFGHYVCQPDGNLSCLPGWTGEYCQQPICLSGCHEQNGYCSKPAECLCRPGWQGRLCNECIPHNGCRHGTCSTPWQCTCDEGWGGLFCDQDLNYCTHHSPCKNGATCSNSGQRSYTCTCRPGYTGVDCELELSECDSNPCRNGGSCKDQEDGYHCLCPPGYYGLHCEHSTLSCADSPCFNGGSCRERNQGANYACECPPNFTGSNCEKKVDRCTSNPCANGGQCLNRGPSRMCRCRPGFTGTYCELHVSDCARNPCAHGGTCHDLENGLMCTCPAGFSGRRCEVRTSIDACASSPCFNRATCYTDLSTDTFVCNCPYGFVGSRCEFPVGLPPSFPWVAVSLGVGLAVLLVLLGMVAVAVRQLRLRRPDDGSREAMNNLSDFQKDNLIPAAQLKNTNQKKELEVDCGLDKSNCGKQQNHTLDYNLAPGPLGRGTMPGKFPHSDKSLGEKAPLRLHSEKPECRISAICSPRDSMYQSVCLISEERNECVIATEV

Count (full length human DLL4 [1]): 198
FL1 (full length human DLL4 [1]): 9810
FL1 x count (full length human DLL4 [1]): 1.94e+06
B1: 9G8 (antibody, IgG4, V domains shown)
VH: QLQLQESGPGLVKPSETLSLSCTVSGGSISSSSSYWGLIRQPPGKGLEWIGSIYYSGSTYYSPSLKSRVSISVDTSKNQFSLKLSSVTAADTAVYFCARQGYGGHPDVFDIWGQGTMVTVSS
VL: SSELTQSPSVSVSPGQTARITCSGDKLGDVYVCWYQQKTGQSPVLVIYEDTKRPSGIPERFSGSNSGNTATLTISGTQVMDEADYYCQAWDSTTAVIFGGGTKLTVL
notes: Fully human; used for IgG4 rows and where no isotype is printed; also called 9G8 IgG4

% inhibition n = 3 (full length human DLL4 [2]): 140%
B4: 21H3 (antibody, IgG4, V domains shown)
VH: QVQLVQSGAEVKKPGASVKVSCKASGYTFTNYGITWVRQAPGQGPEWMGWISAYNGNTNYAQKLQDRVTVTTDTSTSTAYMELRSLRSDDTAVYYCARDRVPRIPVTTEAFDIWGQGTMVTVSS
VL: QSVLTQPPSASGTPGQRVTISCSGSSSNIGSYFVYWYQQLPGTAPKLLIYRNNQRPSGVPDRFSGSESGTSASLAISGLRSEDEADYYCAAWDDSLSGHWVFGGGTRLTVL
notes: Fully human; used for IgG4 rows and where no isotype is printed; also called 21H3 IgG4

Second part, the binder before the results:

B2: 2H10 (antibody, IgG4, V domains shown)
VH: QVQLVESGGGVVQPGRSLRLSCAASGFTFSRHGMHWVRQAPGKGLEWVAVVWFDGSNIYYADSVKGRFTISRDNSKNTLYLQMNSLRAEDTAMYYCARDSRIAAADYWGQGTLVTVSS
VL: SYELTQPPSVSVSPGQTVSITCSGDKLGDKYVCWYQQKPGQSPVLVIYQESKRPSGIPERFSGSSSGNTATLTISGTQAMDEADYYCQTWDSSLVVFGGGTKLTVL
notes: Fully human; used for IgG4 rows and where no isotype is printed; also called 2H10 IgG4
Count (full length human DLL4 [1]): 191
FL1 (full length human DLL4 [1]): 10800
FL1 x count (full length human DLL4 [1]): 2.06e+06

B3: 4B4 (antibody, IgG4, V domains shown)
VH: QVLLIQSGAEVKKPGASVQVSCKASGYTFTNYGVIWVRQAPGQGLEYMGWISAYNGNTNYAQKLQDRVTMTSDTSTTTAYMELRSLRSDDTAVYYCARELGSSFDYWGQGTLVTVSS
VL: SYELTQPPSVSVSPGQTARITCSGDALPKKYAYWYQQKSGQAPVLVIYEDIKRPSGIPERFSGSSSGTMATLTISGAQVEDEADYYCFSTDNSGDHSVFGGGTKLTVL
notes: Fully human; used for IgG4 rows and where no isotype is printed; also called 4B4 IgG4; 4B4.1
% inhibition n = 3 (full length human DLL4 [2]): 148%
